The supplement of paper PMC12636428

These sequences were tested on Saccharomyces cerevisiae (assay: transcriptional activation domain activity (GFP:mCherry ratio, weighted mean of sorted bins, harmonized to initial dataset scale) (arbitrary fluorescence ratio units); higher = stronger transcriptional activation). Conditions: beta-estradiol 1 µM; induction time 4 h.
Outline: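 For this assay, yeast diploids with a GFP reporter carried barcoded protein tiles at URA3, each fused to an estradiol-inducible synthetic transcription factor. Induction was a 1:5 dilution into SC with 1 uM beta-estradiol for 4 hours at 30 °C, followed by sorting into 8 bins by GFP:mCherry ratio and barcode sequencing. Tiles under 50 reads were dropped, and activation activity was calculated as the read-weighted mean of bin median fluorescence, averaged across barcodes and linearly mapped onto the initial dataset scale.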

Sequence | transcriptional activation domain activity
ETGSEWREGSSDGFRSVKTVLLGVWAEYGGLRRNEICDTLRRLTLSSLGKINP | 53800
LLVFGFEEHFFFFIFFFLVDGSAFCMFCDVFHFYVCCYVPHLLCLTLVIAGVS | 73000
LLFFFFFFLLLFFLLFLLLRSRPPSSFSPASIVWPLRAGFGIPLPLFLLFFLP | 20800
MWFLHPLPFPLASSTWLHFVVLSFYIFFFLPFPSCALVLFWCWFFLLVRLLTS | 39400
MHSMRHAPSSFFLLFRPVIVFMAVVFSNFYLLPLLFSLLYVILCFFLYILFVS | 34600
ISLGDFIVTLNYLFCYFLMQAPSLKLKPTSLFFFFLCIWLDFVLCLLILLRVA | 46400
FLRRVFQNHPEVMFKPGPFYMGDGIIGLGANWICICWTLFVCVLLSFPTILPV | 66700
LPTKYRVLDGLFQALAVRAGGFYVVTIANLRQGLLYVSAYPVTLTMRNTNVYE | 48900
EVSIDGVQTVTYCGRDALPEHDKVTEVGWVLDRGILKLGVLYLWLNCRHMCVT | 65400
SREGPAQSSCSSRVTEILKSSRDLKVGDVLVLGKDQRVPADVVLLKSFATEAS | 18600
MFFCSFFRWGFIFFFSFLFFSFILLCWCFLVFLNFATDPACNLPFSFLVFIPR | 57600
MISLFFFLFLYHIYVFLLLLLLYFLPSLPYPPIYTLYIVSLIIPHLVYLLQNS | 31400
MKILRLYLTKLPFLARPILTQLLQESLFRYGIVRELGIYLRQNYFDNTGRFTL | 83400
MLDLLVVHFPISNGLIEDNDLKVLVKAAVGVVLRKDMSLNRRLYAWLLGAQEG | 44600
SKADTEDGEEAVDDTATEEKPEAKAEEVTEETTTEKEAEAAAESAAAEKLRRD | 25700
DLAPVQPVQKQARRRSGPACEGCKARKTKCDGKRPTCGSCVDKRHCVYADASV | 21900
VVPCLALVKKKSFFFVFFLLFLFLCTHLTACIAFSPFLFLFLFVFLFVALFSV | 40400
SEEAQEEAQQPKKKKRTRASDMWKEEGKAEKKEKKKAKKGKKHSKLEEPAEKA | 14500
MLSLIWCFKAWLLTIISLPSYIILRTPLPFLFSSSPLFRSSPFHFFFTSLSTH | 48100
MYYIIISYDYFLIILIPIIDTCYPFKDFCIIFFIYPLLLHYAIFYYLRLVFIY | 45100
GEGEEDDVNGNKKRASDRSSSPKSKRSRKDEEEKEKEKKPTVKKPRQTKPKTT | 31300

Sequence | transcriptional activation domain activity
ARQGVGMMQSNVVFFFFFSFSFLFLFFFFSFSFLFLFFFPFSIIPTCSSLAVF | 44800
MFFLSSIFLTLSMTLSPLFLYFNWLVVYGFSSLFFIFSTPTFLPPLCFFQWYC | 45200
FDQDIPQDSSLNTSYISNLPYFGVTPSENFDETWFFDQAIGLGWLDSAQFTLG | 142000
RGDTAAPGAEDDVELHYVCFVKGGDGRLWELDGRRKGPLERGRLGEGEDVLSE | 27800
RVVLRCLFLAYECIEEADVKSTLSYTIEVAFNLITSTCDYIGPVAMSHALRAG | 53900
PAASGSDDDEPIAAKKPSAPRKRKAKVESDSDDEKPIAKKLAAKKPRASKVKA | 14100
EEAEKVPEKKPKAEEKAAEDGESSNPVHKCWNCGRTKSAVWRTKVMEDGKAVR | 33200
EKNKAEKKVKTPKSPKKEKKKEEPAAAAVEEPAKEEAAPAEAPAAPVEEPAKV | 22800
DIETLLVYDYYPKPLLDIDLTIRGRHIYLPIEKTWLRYVPKPPWYLLVLLFAG | 60500
MSSTKRPAEEEEPVIHEEDEPGKPDSAAAPAPKRRGRPPGSKNKKTIAAEAAA | 32700
SFNLLLYGCVLADIGINLSFSCAVSYSHNRKASDVPHILELLFICMLQCCYIG | 60000
RTSRHLTLLFWSPLLFFSILLLLPIFLPLFLRFLLLWFPILLLLPLLCFLLLW | 13000
MAEADQSSHHQPEPRRTHRKSRNGCVTCKQRRVKCDEGRPTCQKCSFGNRPCS | 41900
MSIVLLCSHIFYTLLGSRRFIAACFFWSLSVPSHLSHICLSCIFLLLSFFLLC | 53900
KKKEEGKKRKRKRGKGRGRREKEERRKRGKEKGRRKERGKGKKKKESWGWRKG | 42000
QANGVEKAVENLSISSPHPDTHAQSAPEQNGPKKKPNRAKARLARRAAEYEAL | 14100
MSLFSPSPSLSLYNFKIRFCILLVPLILAFLFLIILISYCLSLFICFSSSLWF | 54700
TDYYQAVGQHDFIKAFHDEIGPFHRKVYDNVIRKIFVLLAIILELPENYFVDR | 40900
LYLLIFFPVLLWRYLCIGLDSVLCCHIGFHFPYFMCYFFAIMSVSRSFFYSCI | 50700
GANADELGHIIVTRRNRFWKIKGIVGGRILSMPELERWTLFVLLMCFRLHIYP | 23900
PANSSFVYVPMGWTLEVRNDGNPAIYAALLVRALLSRRVCRVGLLKHNTILVH | 51300

Sequence | transcriptional activation domain activity
VEPAPENWRELTQIPAFAGIRSASFVRHTVALVESLLLRAAFVRAVFAELRAC | 53700
LHLFGLVLVWVSYLLFWVFLLFSFVYPDWLLALFILRIILFLFSFSVILFYFI | 47100
MCLLGDGRHPEFFIFYFLYHFFLLYLLFYPQAFSRYLFIWMGCLNCFYFRFGL | 41000
EALMRRFISKGGFMTSRINWAIQSSGVDYLHLLIVSMEYLIRRFNLNARLAIT | 49400
KCSKVEPWVINVAAVFPSVFLLGFVENFFWFRRMMLGKGCLRFGTVCWALLFI | 65800
NCVNLSFQLLFGELVVFLISLYMSVLYGLLYMFFVAQLPPEVRLIPMMCSCWF | 59700
GPSAEATPPSTEVKKKRQYRKRQITAEGGEAENGEASSAVPKPKRVRKKKDPP | 38300
SSSSASSSSASARGRKTQAARSTKKRKRRDAVSSANKDEDNDSDASNDEDEDE | 27500
VCVANIFVVFSLYSYTWIQAVVISLSILVYYAFIAIYAQFNTFLFAGQIRLFG | 70400
DEDAEGEDDPESAEPAKKRGRPPGSGKKRKPAAEKPKPQPGRGRGRPKKSEAA | 18000
RAVDNSKWWLLGDSFETDVLTFVSLFQFVNAALIFNYGYLFRDRWYRNYLLLV | 47900
MFWIFYELFLDGQDIHRFSLLLVFFLFFPFASYTYSLLLLILYSVSPYGFLTS | 38000
GKPGGGEAKTGERKGEGRGGRGKGGPGGKKDGPPPGEGKGAVVASAASTSATP | 34700
PCMLRLLIWIAFKLVPENSSIREPLNFLLDHPRRCYTLLFPSGPTWTLFAFLV | 60500
IVRIVFFPTIFSFFNFFAVWFYQRSWILLPFPELYECFALVAMFYLLVVYVTP | 46200
CCIRNSLFQEDSKCIKQQPDLLSEQTAPFPILEDQCPALNLDRSNNDLLLQNN | 35300
YILYMLRMSVRELTRSELLIVRLGRPTKLIIAGNWEINLLGIFVGLGIVCTEV | 59400
RGEGDSKSDGKSDGKSEDKAENKGEEAPLVSEKDLVILAEHDLNGRQIKNVIK | 11000
DINSFTNQQQQAQDNPSFLPLDIEQSSYDLSEDAMSYPIISTQSNRDCTQYDN | 68700
PSASTRSAKSGSKGKGSKTTTVGSGSDTEKESAKMASSRSSKHSSSSRKDKSS | 29200
VFSQTEAIRVLGLIGRIATGRHLDIILSDILPPSTVAELYALGKFMNLPWWYR | 58400

Sequence | transcriptional activation domain activity
IKLMTLLYVFCRCSAVANVIYTVAITSSLDTLRVTYRISSVISLLCRTSVMMV | 43300
MEDAGDDATPATKKGKGMKKRKKGEESDGENEKPAKTPKTKLKLTNKTPKEAS | 36600
KSGCGYILGHINIFQPINWILVTSSKVFPIDYILFLLLVMFFFSASIVGIATV | 34400
RGLKNVVVLPAVGERSLASCLAGGDLDGYVIRVLRMLVWFIAFSRDTYDIYIG | 69600
QQLGLWIFTWCACNFFLLFFVLKHSIHQKDINILIANVLDIWGLIDPQQILVK | 61600
SFSAYFIACCVVIHVTQLVGSPLYLFNKPLYYAYMARTKQSFGVLVTTITQWW | 68900
FFHVTVRVASQGCGLAFGIHGFENTDVFLAYLILGAEGYFTLVLCTFRFLVSW | 66200
EAKTDAETAVETQPEPKEEVATEETTKSAAKPAGAKKGGKKRAQPEKPADEAA | 12500
TDAGPGEEDEEVVHEVRAKALRHVPVKPDDDADSKKKNNSPWQPEGLGPLRIL | 34200
PPPPPPPPPGPSPARFAPPPAPPPPPPPSGRPAPPPAPPPPPPPPPPAFGGGP | 17000
AYAVMVVIQSLFLCLFGMAFQFSFFLNANFVVVYSIFVLYGWAMICFALFLST | 46800
KLRGYGFVCQMLQLPIVVLQRTKWVRGRETLNNVCFWASMILGLSLVRCLFPL | 50200
MDSQDAGRVSSQGQAVKEKQRSRTGCRTCKSRKVKCDETRGGCRNCERLNLPC | 14700
LFCALMPIRFYTYFKQSFQYYLADLCYYVNLLLLIFLWVLPTSCSLFISVFSL | 78400
RAYQQPILEYCRDAIDKESATTLSDERTVSKDDAEAKYSRVISACISLLASLL | 30600
IYVLHLFSTFPIFPLFPLFPIFLNFFIFLILILIFPIFPIFPIFPIFLIFPIF | 52900
MYYLLLPLAYSLSHSVFFFFSVFLLRVLQYHGWWPFLLSSLCVFFLACVFVKG | 27100
TLPFQIFMICDLTVPLKLNGFLVNGSLNLLGIMMVRVTFSCLGLAQLFQLIIC | 62100
MSTNERKKQRFVKSIHKEKKNTACCSSTNVIGTSKLSSPVIAVVVVVVVVCWG | 45100
KWIIPTPFASHAFNPCDGFLQSLPYHIYVYMIPMHKYLYLLMFVLVNFWTVMI | 49700
